Patent US11504441B2, “Radiolabeled compounds targeting the prostate-specific membrane antigen” (PROVINCIAL HEALTH SERVICES AUTHORITY, priority 2019, dated 2022)

Legend:
[1] = test system: PSMA-expressing LNCaP cancer xenografts
[2] = in vivo; details: male, NODSCID 1L2RγKO, mouse, iv, total radioactivity; for excreta dose per gram or mL at 1 h: Urine uptake

O=C(O)CN1CCN(CC(=O)O)CCN(CC(=O)NC[C@H]2CC[C@H](C(=O)N[C@@H](Cc3c4ccccc4cc4ccccc34)C(=O)NCCCC[C@H](NC(=O)N[C@@H](C[C@H](F)C(=O)O)C(=O)O)C(=O)O)CC2)CCN(CC(=O)O)CC1 [68Ga-HTK04040, metal not drawn]
Blood: Salivary ratio ([1]; mouse, in vivo): 0.73 ± 0.06
Tumor: Blood ratio ([1]; mouse, in vivo): 20.4 ± 6.02
Tumor: Kidney ratio ([1]; mouse, in vivo): 0.26 ± 0.08
Tumor: Muscle ratio ([1]; mouse, in vivo): 43.2 ± 24.9
Tumor: Salivary ratio ([1]; mouse, in vivo): 14.9 ± 4.40
tissue uptake at 1 h ([2]; Adrenal glands uptake): 2.68 ± 0.7 %ID/g
tissue uptake at 1 h ([2]; Blood uptake): 0.94 ± 0.12 %ID/g
tissue uptake at 1 h ([2]; Bone uptake): 0.18 ± 0.03 %ID/g
tissue uptake at 1 h ([2]; Brain uptake): 0.25 ± 0.43 %ID/g
tissue uptake at 1 h ([2]; Fat uptake): 0.6 ± 0.3 %ID/g
tissue uptake at 1 h ([2]; Heart uptake): 0.88 ± 0.08 %ID/g
tissue uptake at 1 h ([2]; Intestine uptake): 0.53 ± 0.04 %ID/g
tissue uptake at 1 h ([2]; Kidneys uptake): 76 ± 22.6 %ID/g
tissue uptake at 1 h ([2]; Lacrimal uptake): 0.06 ± 0.02 %ID/g
tissue uptake at 1 h ([2]; Liver uptake): 0.94 ± 0.11 %ID/g
tissue uptake at 1 h ([2]; Lungs uptake): 2.01 ± 0.21 %ID/g
tissue uptake at 1 h ([2]; Muscle uptake): 0.64 ± 0.5 %ID/g
tissue uptake at 1 h ([2]; Pancreas uptake): 0.61 ± 0.08 %ID/g
tissue uptake at 1 h ([2]; Salivary uptake): 1.29 ± 0.24 %ID/g
tissue uptake at 1 h ([2]; Seminal uptake): 0.51 ± 0.12 %ID/g
tissue uptake at 1 h ([2]; Spleen uptake): 2.58 ± 0.8 %ID/g
tissue uptake at 1 h ([2]; Stomach uptake): 0.23 ± 0.08 %ID/g
tissue uptake at 1 h ([2]; Tail uptake): 0.85 ± 0.54 %ID/g
tissue uptake at 1 h ([2]; Testes uptake): 0.74 ± 0.04 %ID/g
tissue uptake at 1 h ([2]; Thyroid uptake): 1.14 ± 0.14 %ID/g
tissue uptake at 1 h ([2]; Tumor uptake): 18.8 ± 5.06 %ID/g
excreta dose per gram or mL at 1 h [2]: 325 ± 66.8 %ID/g

O=C(O)CCC[C@H](NC(=O)N[C@@H](CCCCNC(=O)[C@H](Cc1c2ccccc2cc2ccccc12)NC(=O)c1ccc(NC(=O)CN2CCN(CC(=O)O)CCN(CC(=O)O)CCN(CC(=O)O)CC2)cc1)C(=O)O)C(=O)O [68Ga-HTK04041, metal not drawn]
Blood: Salivary ratio ([1]; mouse, in vivo): 3.96 ± 0.51
Tumor: Blood ratio ([1]; mouse, in vivo): 12.4 ± 3.62
Tumor: Kidney ratio ([1]; mouse, in vivo): 2.06 ± 0.89
Tumor: Muscle ratio ([1]; mouse, in vivo): 95.1 ± 33.7
Tumor: Salivary ratio ([1]; mouse, in vivo): 48.2 ± 12.2
tissue uptake at 1 h ([2]; Adrenal glands uptake): 0.31 ± 0.05 %ID/g
tissue uptake at 1 h ([2]; Blood uptake): 1 ± 0.09 %ID/g
tissue uptake at 1 h ([2]; Bone uptake): 0.13 ± 0.02 %ID/g
tissue uptake at 1 h ([2]; Brain uptake): 0.02 %ID/g
tissue uptake at 1 h ([2]; Fat uptake): 0.11 ± 0.03 %ID/g
tissue uptake at 1 h ([2]; Heart uptake): 0.3 ± 0.03 %ID/g
tissue uptake at 1 h ([2]; Intestine uptake): 0.19 ± 0.04 %ID/g
tissue uptake at 1 h ([2]; Kidneys uptake): 6.82 ± 2.93 %ID/g
tissue uptake at 1 h ([2]; Lacrimal uptake): 0.11 ± 0.05 %ID/g
tissue uptake at 1 h ([2]; Liver uptake): 0.37 ± 0.08 %ID/g
tissue uptake at 1 h ([2]; Lungs uptake): 0.82 ± 0.08 %ID/g
tissue uptake at 1 h ([2]; Muscle uptake): 0.13 ± 0.03 %ID/g
tissue uptake at 1 h ([2]; Pancreas uptake): 0.15 ± 0.02 %ID/g
tissue uptake at 1 h ([2]; Salivary uptake): 0.26 ± 0.04 %ID/g
tissue uptake at 1 h ([2]; Seminal uptake): 1.68 ± 3.44 %ID/g
tissue uptake at 1 h ([2]; Spleen uptake): 0.4 ± 0.11 %ID/g
tissue uptake at 1 h ([2]; Stomach uptake): 0.07 ± 0.03 %ID/g
tissue uptake at 1 h ([2]; Tail uptake): 0.57 ± 0.05 %ID/g
tissue uptake at 1 h ([2]; Testes uptake): 0.31 ± 0.05 %ID/g
tissue uptake at 1 h ([2]; Thyroid uptake): 0.29 ± 0.04 %ID/g
tissue uptake at 1 h ([2]; Tumor uptake): 12.2 ± 3.15 %ID/g
excreta dose per gram or mL at 1 h [2]: 396 ± 92.3 %ID/g

O=C(O)CSC[C@H](NC(=O)N[C@@H](CCCCNC(=O)[C@H](Cc1c2ccccc2cc2ccccc12)NC(=O)[C@H]1CC[C@H](CNC(=O)CN2CCN(CC(=O)O)CCN(CC(=O)O)CCN(CC(=O)O)CC2)CC1)C(=O)O)C(=O)O [68Ga-HTK03177, metal not drawn]
Blood: Salivary ratio ([1]; mouse, in vivo): 3.14 ± 0.19
Tumor: Blood ratio ([1]; mouse, in vivo): 36.1 ± 12.5
Tumor: Kidney ratio ([1]; mouse, in vivo): 3.25 ± 1.16
Tumor: Muscle ratio ([1]; mouse, in vivo): 220 ± 135
Tumor: Salivary ratio ([1]; mouse, in vivo): 112 ± 33.1
tissue uptake at 1 h ([2]; Adrenal glands uptake): 0.46 ± 0.17 %ID/g
tissue uptake at 1 h ([2]; Blood uptake): 0.7 ± 0.06 %ID/g
tissue uptake at 1 h ([2]; Bone uptake): 0.1 ± 0.03 %ID/g
tissue uptake at 1 h ([2]; Brain uptake): 0.02 %ID/g
tissue uptake at 1 h ([2]; Fat uptake): 0.09 ± 0.04 %ID/g
tissue uptake at 1 h ([2]; Heart uptake): 0.21 ± 0.01 %ID/g
tissue uptake at 1 h ([2]; Intestine uptake): 0.21 ± 0.02 %ID/g
tissue uptake at 1 h ([2]; Kidneys uptake): 7.76 ± 1 %ID/g
tissue uptake at 1 h ([2]; Lacrimal uptake): 0.12 ± 0.06 %ID/g
tissue uptake at 1 h ([2]; Liver uptake): 0.33 ± 0.2 %ID/g
tissue uptake at 1 h ([2]; Lungs uptake): 0.61 ± 0.08 %ID/g
tissue uptake at 1 h ([2]; Muscle uptake): 0.18 ± 0.18 %ID/g
tissue uptake at 1 h ([2]; Pancreas uptake): 0.14 ± 0.01 %ID/g
tissue uptake at 1 h ([2]; Salivary uptake): 0.22 ± 0.02 %ID/g
tissue uptake at 1 h ([2]; Seminal uptake): 0.28 ± 0.38 %ID/g
tissue uptake at 1 h ([2]; Spleen uptake): 0.42 ± 0.15 %ID/g
tissue uptake at 1 h ([2]; Stomach uptake): 0.15 ± 0.09 %ID/g
tissue uptake at 1 h ([2]; Tail uptake): 0.74 ± 0.12 %ID/g
tissue uptake at 1 h ([2]; Testes uptake): 0.25 ± 0.07 %ID/g
tissue uptake at 1 h ([2]; Thyroid uptake): 0.23 ± 0.01 %ID/g
tissue uptake at 1 h ([2]; Tumor uptake): 24.7 ± 6.85 %ID/g
excreta dose per gram or mL at 1 h [2]: 400 ± 262 %ID/g

O=C(O)CN1CCN(CC(=O)O)CCN(CC(=O)NC[C@H]2CC[C@H](C(=O)N[C@@H](Cc3c4ccccc4cc4ccccc34)C(=O)NCCCC[C@H](NC(=O)N[C@@H](C[C@H](F)C(=O)O)C(=O)O)C(=O)O)CC2)CCN(CC(=O)O)CC1 [HTK04040]
binding to PSMA (in words) ([1]; concluded from biodistribution): bind well to PSMA
kidney and salivary gland uptake (in words) ([1]; mouse, in vivo): much less kidney and salivary gland uptake
tissue uptake at 1 h ([2]; kidney uptake): 76 %ID/g
